The record followed here is patent US20240229045, “APTAMER FOR SPECIFICALLY RECOGNIZING SOLUBLE ST2 PROTEIN AND APPLICATION OF THE SAME” (BEIJING INSTITUTE OF HEART, LUNG AND BLOOD VESSEL DISEASES, published 2024).

Data set [1] concerns the target T1, soluble ST2 (sST2, IL1RL1 soluble isoform) (Homo sapiens, UniProt Q01638-2 Q01638-2:19-328). Put plainly: EMSA; strong binding; room temperature 30 min. The procedure: According to the experimental formula shown in Table 4, the aptamer was added to the buffer solution and nuclease-free water, heated at 95° C. for 10 minutes, quenched on ice for 10 minutes, and room temperature for 10 minutes.
The above DNA solution and sST2 protein were slowly mixed to a final volume of 20 μL, and a sample containing only aptamer and no protein was used as a negative control, and incubated with rotation at room temperature for 30 minutes.

The target in data set [2] is T1, soluble ST2 (sST2, IL1RL1 soluble …). The data set is described as follows: fiber-optic fluorescence, sST2 immobilised; 137 mM NaCl, 2.7 mM KCl, phosphate.

T1 sequence (Q01638 other isoform, or with tags, fused parts or gaps): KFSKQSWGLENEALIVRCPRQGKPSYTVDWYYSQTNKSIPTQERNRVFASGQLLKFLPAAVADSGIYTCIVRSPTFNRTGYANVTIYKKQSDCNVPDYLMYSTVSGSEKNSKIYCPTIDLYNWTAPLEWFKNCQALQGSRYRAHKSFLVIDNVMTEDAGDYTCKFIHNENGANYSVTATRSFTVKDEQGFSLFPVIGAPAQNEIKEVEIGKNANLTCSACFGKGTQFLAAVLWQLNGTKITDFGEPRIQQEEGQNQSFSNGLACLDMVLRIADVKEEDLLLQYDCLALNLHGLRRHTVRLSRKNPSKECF

B1: Apt2 (ssDNA)
DNA: TCCATCCACTCGGGCCCTAGGGCGTGTATGTCCAT
As to B1, in data set [1], the binding result is “binds”.

B2: Apt1 (ssDNA)
DNA: TCCATCCACTCGGGGCTAGAAGCCGTGAGAATCTG
As to B2, the binding result in data set [1] is given as “binds”.

B3: Apt4 (ssDNA)
DNA: TCCATCCACTCGGGGCGGGGGCTCGTGCTCTATTTC
Usually Kd stands for the free concentration of one partner at which half of the binding sites on the other are occupied at equilibrium, for simple one-to-one binding. Molecule B3 returned a Kd in data set [2] of 127 nM.

B4: Apt8 (ssDNA)
DNA: TCCATCCACTCGGCGCCACGCGGTTTCTCCAGATT
With B4, the binding result in data set [1] is reported as “binds”.

B5: Apt3 (ssDNA)
DNA: TCCATCCACTCGGCCTACTAAGGGTTTCGTTCACC
For the molecule B5, in data set [1], the binding result was “binds”.
